Measured values taken from US20060280745A1 (MEDICAL RESEARCH COUNCIL, published 2006).

Molecular target: T1, murine PrP^c (mouse, UniProt P04925 23-230)
T1 construct: also called mouse PrP^c; normal cellular prion protein
Assay: immunoblot of whole spleen homogenate (FIG. 5)

T1 sequence (P04925 23-230 limits assumed): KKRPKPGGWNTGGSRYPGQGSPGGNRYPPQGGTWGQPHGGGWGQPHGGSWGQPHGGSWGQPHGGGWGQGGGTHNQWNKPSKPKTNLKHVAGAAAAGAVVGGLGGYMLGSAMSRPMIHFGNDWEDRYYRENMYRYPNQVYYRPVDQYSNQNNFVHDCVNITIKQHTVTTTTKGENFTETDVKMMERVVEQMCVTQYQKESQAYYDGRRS

B1: ICSM 18 (antibody, V domains shown)
VH: EVQLQQSGPELVKPGSSVKISCKASRNTFTDYNLDWVKQSHGKTLEWIGNVYPNNGVTGYNQKFRGKATLTVDKSSSTAYMELHSLTSEDSAVYYCALYYYDVSYWGQGTLVTVSA
VL: QIVLTQSPAIMSASPGEKVTMTCSASSSVSYMHWYQQKSGTSPKRWIYDTSKLASGVPARFSGSGSGTSYSLTISSMEAEDAATYFCHQWRSNPYTFGGGTKLEIKR
notes: also called biotinylated ICSM 18
binding result: binds
